Source: patent EP4755449A2 (CHUGAI SEIYAKU KABUSHIKI KAISHA, dated 2026)
Residue numbers refer to the chain shown, from its start.

T1: human latent myostatin (human, UniProt O14793 25-266; O14793 267-375)
T1 construct: non-covalent complex of two propeptides and the mature homodimer; also called human myostatin latent form
T1 sequence 1: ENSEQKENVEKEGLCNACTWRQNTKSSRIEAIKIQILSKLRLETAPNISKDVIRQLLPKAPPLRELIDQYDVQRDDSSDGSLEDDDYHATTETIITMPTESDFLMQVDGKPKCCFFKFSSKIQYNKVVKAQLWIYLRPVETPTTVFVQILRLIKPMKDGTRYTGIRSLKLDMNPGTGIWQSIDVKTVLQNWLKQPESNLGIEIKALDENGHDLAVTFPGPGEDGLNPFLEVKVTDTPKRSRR
T1 sequence 2: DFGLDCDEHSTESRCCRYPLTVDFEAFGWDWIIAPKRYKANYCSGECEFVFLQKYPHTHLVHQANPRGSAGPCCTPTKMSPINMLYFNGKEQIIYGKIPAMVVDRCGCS

T2: cynomolgus monkey latent myostatin (cynomolgus monkey, UniProt Q95J86 25-266; Q95J86 267-375, limits assumed)
T2 construct: also called cyno latent myostatin
T2 sequence 1: T1 sequence 1 with V52A
T2 sequence 2: T1 sequence 2

T3: mouse latent myostatin (mouse, UniProt O08689 26-267; O08689 268-376)
T3 sequence 1: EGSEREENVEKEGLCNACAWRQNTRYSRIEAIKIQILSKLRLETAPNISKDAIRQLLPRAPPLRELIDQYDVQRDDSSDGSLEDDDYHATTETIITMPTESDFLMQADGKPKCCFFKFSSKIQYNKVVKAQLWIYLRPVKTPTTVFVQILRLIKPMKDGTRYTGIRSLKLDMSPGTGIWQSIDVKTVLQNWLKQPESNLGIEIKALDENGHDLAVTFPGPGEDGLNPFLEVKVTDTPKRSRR
T3 sequence 2: T1 sequence 2

B1: MS_M103205H781-SG1/M103202L813-SK1 (antibody, human IgG1, kappa, V domains shown)
VH: QVTLKESGPVLVKPTETLTLTCTVSGIDLSHTDISWVRQAPGKGLEWVGIISYAGSTYYMSWAKGRLTISKDTSKNQVVLTMTNMDPVDTATYYCARGVPAYSHGGDLWGQGTLVTVSS
VL: DIVMTQSPATLSLSPGERATLSCQTSQSVYHDNWLSWFQQKPGQPPKLLIYWASTLASGVPSRFSGSGSGTDFTLTISSLQPEDAATYYCAGGYGGGRYAFGQGTKVEIKR
notes: also called MS1032LO03-SG1
B2: MS_M103205H795-SG1/M103202L889-SK1 (antibody, human IgG1, kappa)
heavy: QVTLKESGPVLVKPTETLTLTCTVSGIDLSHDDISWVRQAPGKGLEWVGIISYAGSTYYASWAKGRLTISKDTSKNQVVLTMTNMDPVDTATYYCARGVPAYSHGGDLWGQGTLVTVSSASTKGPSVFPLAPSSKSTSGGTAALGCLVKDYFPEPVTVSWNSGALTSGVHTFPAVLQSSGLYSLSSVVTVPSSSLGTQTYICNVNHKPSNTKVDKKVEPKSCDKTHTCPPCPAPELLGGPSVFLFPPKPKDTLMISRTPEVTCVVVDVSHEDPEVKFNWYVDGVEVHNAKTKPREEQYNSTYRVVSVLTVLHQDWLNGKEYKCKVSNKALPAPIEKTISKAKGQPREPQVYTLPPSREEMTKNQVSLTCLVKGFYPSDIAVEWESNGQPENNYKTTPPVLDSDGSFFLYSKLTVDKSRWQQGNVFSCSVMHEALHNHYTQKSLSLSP
light: DIVMTQSPATLSLSPGERATLSCTSSQSVYHANWLSWFQQKPGQPPKLLIYWASTLAYGVPSRFSGSGSGTDFTLTISSLQPEDAATYYCAGGYGGGRYAFGQGTKVEIKRTVAAPSVFIFPPSDEQLKSGTASVVCLLNNFYPREAKVQWKVDNALQSGNSQESVTEQDSKDSTYSLSSTLTLSKADYEKHKVYACEVTHQGLSSPVTKSFNRGEC
notes: also called MS1032LO06-SG1
B3: MS_M103240H795-SG1/M103202L1045-SK1 (antibody, human IgG1, kappa)
heavy: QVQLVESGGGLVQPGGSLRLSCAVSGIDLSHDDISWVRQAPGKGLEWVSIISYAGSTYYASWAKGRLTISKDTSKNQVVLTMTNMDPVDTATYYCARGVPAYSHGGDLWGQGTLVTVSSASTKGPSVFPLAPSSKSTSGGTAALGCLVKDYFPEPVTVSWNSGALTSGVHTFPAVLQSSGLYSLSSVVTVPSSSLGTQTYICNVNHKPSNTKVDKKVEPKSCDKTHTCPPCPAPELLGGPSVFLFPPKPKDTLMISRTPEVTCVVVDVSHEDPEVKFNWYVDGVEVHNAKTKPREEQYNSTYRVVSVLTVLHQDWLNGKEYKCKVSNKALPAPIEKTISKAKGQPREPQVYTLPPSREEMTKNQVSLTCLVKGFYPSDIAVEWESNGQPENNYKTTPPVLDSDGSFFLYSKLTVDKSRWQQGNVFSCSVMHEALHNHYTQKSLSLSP
light: B2 light with S25T, A32E
notes: also called MS1032LO19-SG1
B4: MS_M103245H795-SG1/M103202L1045-SK1 (antibody, human IgG1, kappa, V domains shown)
VH: B1 VH with T23K, T32D, G49S, M60A
VL: B1 VL with Q24T, D32E, S58Y
notes: also called MS1032LO21-SG1
B5: MS_M103205H1046-SG1/M103202L889-SK1 (antibody, human IgG1, kappa, V domains shown)
VH: B1 VH with S56K, M60A, G65K
VL: B1 VL with Q24T, T25S, D32A, S58Y
notes: also called MS1032LO10-SG1
B6: MS_M103205H1057-SG1/M103202L889-SK1 (antibody, human IgG1, kappa, V domains shown)
VH: B1 VH with T57K, Y59K, M60A
VL: B1 VL with Q24T, T25S, D32A, S58Y
notes: also called MS1032LO12-SG1
B7: MS_M103205H795-SG1/M103202L1060-SK1 (antibody, human IgG1, kappa, V domains shown)
VH: B1 VH with T32D, M60A
VL: B1 VL with Q24T, T25S, Y30F, D32E, S58W
notes: also called MS1032LO24-SG1
B8: MS_M103245H1233-SG1/M103202L1045-SK1 (antibody, human IgG1, kappa, V domains shown)
VH: B1 VH with T23K, T32E, G49S, M60A
VL: B1 VL with Q24T, D32E, S58Y
notes: also called MS1032LO23-SG1
B9: MS_M103205H1004-SG1/M103202L889-SK1 (antibody, human IgG1, kappa, V domains shown)
VH: B1 VH with T32D, T57M, M60A, L108K
VL: B1 VL with Q24T, T25S, D32A, S58Y
notes: also called MS1032LO07-SG1
B10: MS_M103205H1047-SG1/M103202L889-SK1 (antibody, human IgG1, kappa, V domains shown)
VH: B1 VH with S56K, T57K, M60A
VL: B1 VL with Q24T, T25S, D32A, S58Y
notes: also called MS1032LO11-SG1
B11: MS_M103240H1246-SG1/M103202L1045-SK1 (antibody, human IgG1, kappa, V domains shown)
VH: QVQLVESGGGLVQPGGSLRLSCAVSGIDLSHEDISWVRQAPGKGLEWVSIISYAGSKYYASWAKGRLTISKDTSKNQVVLTMTNMDPVDTATYYCARGVPAYSHGGDLWGQGTLVTVSS
VL: B1 VL with Q24T, D32E, S58Y
notes: also called MS1032LO25-SG1
B12: Ab003 (M103205H009/M103202L000) (antibody, V domains shown)
VH: B1 VH with H31S, T32Y, Y53H, M60A, H104T
VL: B1 VL with T25S, H31D, D32N, R98L
notes: variant of MS1032LO00-SG1
B13: Ab006 (M103205H000/M103202L008) (antibody, V domains shown)
VH: B1 VH with H31S, T32Y, M60A, H104T
VL: B1 VL with T25S, D32N, R98L
notes: variant of MS1032LO00-SG1
B14: Ab005 (M103205H028/M103202L000) (antibody, V domains shown)
VH: B1 VH with H31S, T32Y, M60A
VL: B1 VL with T25S, H31D, D32N, R98L
notes: variant of MS1032LO00-SG1
B15: Ab007 (M103205H028/M103202L008) (antibody, V domains shown)
VH: B1 VH with H31S, T32Y, M60A
VL: B1 VL with T25S, D32N, R98L
notes: variant of MS1032LO00-SG1
B16: Ab004 (M103205H026/M103202L000) (antibody, V domains shown)
VH: B1 VH with H31S, T32Y, M60A, Y102H, H104T
VL: B1 VL with T25S, H31D, D32N, R98L
notes: variant of MS1032LO00-SG1

Biological target: T1, human latent myostatin
Experiment: SPR avidity condition pH5.8 37C; pH 5.8

Row | Kd [nM] | koff [s⁻¹] | kon [M⁻¹ s⁻¹] | Binder
1 | 9.66 | 0.00524 | 543000 | B1

Biological target: T1, human latent myostatin
Experiment: SPR 37C pH5.8; pH 5.8

Row | Kd [nM] | Binder
2 | 34 | B2
3 | 45.8 | B3
4 | 52.3 | B4
5 | 43.8 | B5
6 | 84.9 | B6
7 | 1.52 | B7
8 | 16.1 | B8
9 | 46.2 | B9
10 | 143 | B10
11 | 25.5 | B11

Biological target: T2, cynomolgus monkey latent myostatin
Experiment: SPR 37C pH5.8; pH 5.8

Row | Kd [nM] | Binder
12 | 25.9 | B2
13 | 35.6 | B3
14 | 31 | B4
15 | 16.1 | B5
16 | 35.8 | B6
17 | 0.929 | B7
18 | 7.71 | B8
19 | 34.7 | B9
20 | 43.5 | B10
21 | 14.1 | B11

Biological target: T3, mouse latent myostatin
Experiment: SPR 37C pH5.8; pH 5.8

Row | Kd [nM] | Binder
22 | 22.6 | B2
23 | 28.7 | B3
24 | 29.4 | B4
25 | 10.9 | B5
26 | 24.8 | B6
27 | 1.02 | B7
28 | 6.4 | B8
29 | 30.8 | B9
30 | 29.2 | B10
31 | 9.88 | B11

Biological target: T1, human latent myostatin
Experiment: SPR avidity condition pH7.4 37C; pH 7.4

Row | Kd [nM] | koff [s⁻¹] | kon [M⁻¹ s⁻¹] | Binder
32 | 0.196 | 0.000192 | 981000 | B1

Biological target: T1, human latent myostatin
Experiment: SPR, dissociation phase at pH5.8

Row | koff [s⁻¹] | Binder
33 | 0.00088 | B12
34 | 8.58e-05 | B13
35 | 7.63e-05 | B14
36 | 0.000415 | B15
37 | 0.000186 | B16

Biological target: T1, human latent myostatin
Experiment: SPR affinity condition pH7.4 37C

Row | Kd [nM] | koff [s⁻¹] | kon [M⁻¹ s⁻¹] | Binder
38 | 1.08 | 0.00117 | 1.08e+06 | B1

Biological target: T1, human latent myostatin
Experiment: SPR 37C pH7.4; pH 7.4

Row | Kd [nM] | Binder
39 | 0.285 | B2
40 | 0.273 | B3
41 | 0.257 | B4
42 | 0.351 | B5
43 | 0.407 | B6
44 | 0.164 | B7
45 | 0.26 | B8
46 | 0.275 | B9
47 | 0.419 | B10
48 | 0.276 | B11

Biological target: T2, cynomolgus monkey latent myostatin
Experiment: SPR 37C pH7.4; pH 7.4

Row | Kd [nM] | Binder
49 | 0.343 | B2
50 | 0.326 | B3
51 | 0.309 | B4
52 | 0.419 | B5
53 | 0.492 | B6
54 | 0.189 | B7
55 | 0.299 | B8
56 | 0.339 | B9
57 | 0.502 | B10
58 | 0.34 | B11

Biological target: T3, mouse latent myostatin
Experiment: SPR 37C pH7.4; pH 7.4

Row | Kd [nM] | Binder
59 | 0.299 | B2
60 | 0.271 | B3
61 | 0.261 | B4
62 | 0.314 | B5
63 | 0.413 | B6
64 | 0.176 | B7
65 | 0.266 | B8
66 | 0.319 | B9
67 | 0.362 | B10
68 | 0.259 | B11

Biological target: T1, human latent myostatin
Experiment: SPR 37C

Row | ratio of KD at pH 5.8/pH7.4 | Binder
69 | 119 | B2
70 | 168 | B3
71 | 204 | B4
72 | 125 | B5
73 | 209 | B6
74 | 9 | B7
75 | 62 | B8
76 | 168 | B9
77 | 341 | B10
78 | 92 | B11

Biological target: T2, cynomolgus monkey latent myostatin
Experiment: SPR 37C

Row | ratio of KD at pH 5.8/pH7.4 | Binder
79 | 76 | B2
80 | 109 | B3
81 | 100 | B4
82 | 38 | B5
83 | 73 | B6
84 | 5 | B7
85 | 26 | B8
86 | 102 | B9
87 | 87 | B10
88 | 41 | B11

Biological target: T3, mouse latent myostatin
Experiment: SPR 37C

Row | ratio of KD at pH 5.8/pH7.4 | Binder
89 | 76 | B2
90 | 106 | B3
91 | 113 | B4
92 | 35 | B5
93 | 60 | B6
94 | 6 | B7
95 | 24 | B8
96 | 97 | B9
97 | 81 | B10
98 | 38 | B11
